Test results taken from patent publication US20240117018A1.

How the values were obtained:
Assay in all cases: cell-based or functional assay
[1] = biological target: HIV-1 Env pseudovirus X2131_C1_B5 (HIV-1)
[2] = biological target: HIV-1 Env pseudovirus 6041.v3.c23 (HIV-1)
[3] = biological target: HIV-1 Env pseudovirus T251-18 (HIV-1)
[4] = biological target: HIV-1 Env pseudovirus 620345.c01 (HIV-1)
[5] = biological target: HIV-1 Env pseudovirus C2101.c01 (HIV-1)
[6] = biological target: HIV-1 Env pseudovirus BJOX025000.01.1 (HIV-1)
[7] = biological target: HIV-1 Env pseudovirus R2184.c04 (HIV-1)
[8] = biological target: Env of HIV-1 pseudovirus MS208.A1 (HIV-1)
[9] = biological target: Env of HIV-1 pseudovirus HIV-16055-2.3 (HIV-1)
[10] = biological target: Env of HIV-1 pseudovirus Ce1172_H1 (HIV-1)
[11] = biological target: Env of HIV-1 pseudovirus BF1266.431a (HIV-1)
[12] = biological target: Env of HIV-1 pseudovirus ZM233M.PB6 (HIV-1)
[13] = biological target: Env of HIV-1 pseudovirus HIV-0013095-2.11 (HIV-1)
[14] = biological target: Env of HIV-1 pseudovirus Du156.12 (HIV-1)
[15] = biological target: Env of HIV-1 pseudovirus THRO4156.18 (HIV-1)
[16] = biological target: Env of HIV-1 pseudovirus ZM135M.PL10a (HIV-1)
[17] = biological target: Env of HIV-1 pseudovirus ZM197M.PB7 (HIV-1)
[18] = biological target: Env of HIV-1 pseudovirus T257-31 (HIV-1)
[19] = biological target: Env of HIV-1 pseudovirus Ce0682_E4 (HIV-1)
[20] = biological target: Env of HIV-1 pseudovirus CNE30 (HIV-1)
[21] = biological target: Env of HIV-1 pseudovirus ZM109F.PB4 (HIV-1)
[22] = biological target: Env of HIV-1 pseudovirus ZM214M.PL15 (HIV-1)
[23] = biological target: Env of HIV-1 pseudovirus 263-8 (HIV-1)

**Q.** How did the IC50 (Titer in TZM.bl cells) [1] turn out when 3BNC117 (antibody) was run?
**A.** 0.43 µg/mL

**Q.** And the IC80 (Titer in TZM.bl cells) [1]?
**A.** 1.96 µg/mL

**Q.** And the IC50 (Titer in TZM.bl cells) [2]?
**A.** 0.01 µg/mL

**Q.** What about the IC80 (Titer in TZM.bl cells) [2] of the same substance?
**A.** 0.07 µg/mL

**Q.** And the IC50 (Titer in TZM.bl cells) [3]?
**A.** 0.26 µg/mL

**Q.** What about the IC80 (Titer in TZM.bl cells) [3] of the same substance?
**A.** 0.82 µg/mL

**Q.** And the IC50 (Titer in TZM.bl cells) [4]?
**A.** > 15 µg/mL

**Q.** And the IC80 (Titer in TZM.bl cells) [4]?
**A.** > 15 µg/mL

**Q.** And the IC50 (Titer in TZM.bl cells) [5]?
**A.** 0.05 µg/mL

**Q.** And the IC80 (Titer in TZM.bl cells) [5]?
**A.** 0.31 µg/mL

**Q.** What about the IC50 (Titer in TZM.bl cells) [6] of the same substance?
**A.** 0.05 µg/mL

**Q.** What about the IC80 (Titer in TZM.bl cells) [6] of the same substance?
**A.** 0.2 µg/mL

**Q.** And the IC50 (Titer in TZM.bl cells) [7]?
**A.** 0.03 µg/mL

**Q.** And the IC80 (Titer in TZM.bl cells) [7]?
**A.** 0.1 µg/mL

**Q.** 8ANC195 (antibody) was tested. Which IC50 (Titer in TZM.bl cells) [1] did it give?
**A.** 3.47 µg/mL

**Q.** And the IC80 (Titer in TZM.bl cells) [1]?
**A.** > 50 µg/mL

**Q.** What about the IC50 (Titer in TZM.bl cells) [2] of the same substance?
**A.** > 50 µg/mL

**Q.** And the IC80 (Titer in TZM.bl cells) [2]?
**A.** > 50 µg/mL

**Q.** What about the IC50 (Titer in TZM.bl cells) [3] of the same substance?
**A.** 1.51 µg/mL

**Q.** What about the IC80 (Titer in TZM.bl cells) [3] of the same substance?
**A.** 1.51 µg/mL

**Q.** What about the IC50 (Titer in TZM.bl cells) [4] of the same substance?
**A.** > 50 µg/mL

**Q.** And the IC80 (Titer in TZM.bl cells) [4]?
**A.** > 50 µg/mL

**Q.** And the IC50 (Titer in TZM.bl cells) [5]?
**A.** 0.48 µg/mL

**Q.** What about the IC80 (Titer in TZM.bl cells) [5] of the same substance?
**A.** 3.54 µg/mL

**Q.** What about the IC50 (Titer in TZM.bl cells) [6] of the same substance?
**A.** 4.96 µg/mL

**Q.** And the IC80 (Titer in TZM.bl cells) [6]?
**A.** > 50 µg/mL

**Q.** What about the IC50 (Titer in TZM.bl cells) [7] of the same substance?
**A.** 0.09 µg/mL

**Q.** What about the IC80 (Titer in TZM.bl cells) [7] of the same substance?
**A.** 13 µg/mL

**Q.** How did the IC50 [8] turn out when PG16 (antibody) was run?
**A.** 2 ng/mL

**Q.** What about the IC80 [8] of the same substance?
**A.** 4 ng/mL

**Q.** And the IC50 [9]?
**A.** 0.17 µg/mL

**Q.** What about the IC80 [9] of the same substance?
**A.** > 0.25 µg/mL

**Q.** What about the IC50 [10] of the same substance?
**A.** 7 ng/mL

**Q.** What about the IC80 [10] of the same substance?
**A.** 0.037 µg/mL

**Q.** And the IC50 [11]?
**A.** 3 ng/mL

**Q.** What about the IC80 [11] of the same substance?
**A.** 9 ng/mL

**Q.** And the IC50 [12]?
**A.** 2 ng/mL

**Q.** And the IC80 [12]?
**A.** 6 ng/mL

**Q.** What about the IC50 [13] of the same substance?
**A.** 2 ng/mL

**Q.** And the IC80 [13]?
**A.** 6 ng/mL

**Q.** And the IC50 [14]?
**A.** 6 ng/mL

**Q.** And the IC80 [14]?
**A.** 0.026 µg/mL

**Q.** What about the IC50 [15] of the same substance?
**A.** 6.83 µg/mL

**Q.** And the IC80 [15]?
**A.** > 50 µg/mL

**Q.** What about the IC50 [16] of the same substance?
**A.** > 50 µg/mL

**Q.** What about the IC80 [16] of the same substance?
**A.** > 50 µg/mL

**Q.** What about the IC50 [17] of the same substance?
**A.** 1.5 µg/mL

**Q.** And the IC80 [17]?
**A.** 22.8 µg/mL

**Q.** What about the IC50 [18] of the same substance?
**A.** 7 ng/mL

**Q.** And the IC80 [18]?
**A.** 0.021 µg/mL

**Q.** What about the IC50 [19] of the same substance?
**A.** 0.026 µg/mL

**Q.** What about the IC80 [19] of the same substance?
**A.** 0.202 µg/mL

**Q.** And the IC50 [20]?
**A.** > 50 µg/mL

**Q.** What about the IC80 [20] of the same substance?
**A.** > 50 µg/mL

**Q.** And the IC50 [21]?
**A.** 7.03 µg/mL

**Q.** And the IC80 [21]?
**A.** > 50 µg/mL

**Q.** And the IC50 [22]?
**A.** > 50 µg/mL

**Q.** What about the IC80 [22] of the same substance?
**A.** > 50 µg/mL

**Q.** What about the IC50 [23] of the same substance?
**A.** 0.347 µg/mL

**Q.** What about the IC80 [23] of the same substance?
**A.** 4.97 µg/mL

**Q.** VRC07 (antibody) was tested. Which IC50 (Titer in TZM.bl cells) [1] did it give?
**A.** 0.219 µg/mL

**Q.** What about the IC80 (Titer in TZM.bl cells) [1] of the same substance?
**A.** 1.03 µg/mL

**Q.** What about the IC50 (Titer in TZM.bl cells) [2] of the same substance?
**A.** 0.018 µg/mL

**Q.** What about the IC80 (Titer in TZM.bl cells) [2] of the same substance?
**A.** 0.058 µg/mL

**Q.** And the IC50 (Titer in TZM.bl cells) [3]?
**A.** 1.32 µg/mL

**Q.** And the IC80 (Titer in TZM.bl cells) [3]?
**A.** 6.49 µg/mL

**Q.** And the IC50 (Titer in TZM.bl cells) [4]?
**A.** > 50 µg/mL

**Q.** What about the IC80 (Titer in TZM.bl cells) [4] of the same substance?
**A.** > 50 µg/mL

**Q.** What about the IC50 (Titer in TZM.bl cells) [5] of the same substance?
**A.** 0.238 µg/mL

**Q.** What about the IC80 (Titer in TZM.bl cells) [5] of the same substance?
**A.** 1.4 µg/mL

**Q.** And the IC50 (Titer in TZM.bl cells) [6]?
**A.** 0.279 µg/mL

**Q.** What about the IC80 (Titer in TZM.bl cells) [6] of the same substance?
**A.** 2.29 µg/mL

**Q.** And the IC50 (Titer in TZM.bl cells) [7]?
**A.** 0.02 µg/mL

**Q.** And the IC80 (Titer in TZM.bl cells) [7]?
**A.** 0.104 µg/mL
